Data reported in the supplement of paper PMC7125110.
± gives the standard error. This sample holds only a part of the variants without activity.

B1: glmS ribozyme (parent)
chain: AUAAAAGCGCCAGAACUACAGAAAUGUAGUUGACGAGGAGGAGGUUUAUCGAAUUUUCGGCGGAUGCCUCCAAA

Key:
Conditions in all cases: with glucosamine-6-phosphate
glucosamine-6-phosphate [1] = variants of: B1; assay: self-cleavage kobs at 640 uM GlcN6P; higher = faster cleavage; RNA array
How it was run: (§1)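 Tiles bearing barcoded ribozyme variants, transcribed in situ by E. coli RNA polymerase on sequenced MiSeq chips, were imaged over ~14 h at 37 °C using a hybridised Cy3 probe. Glucosamine-6-phosphate was supplied at 40 μM to 10 mM in HEPES/KCl/Mg(OAc)2 buffer. kobs came from one- or two-exponential decay fits to normalised per-tile medians, and weighted Michaelis–Menten fits then provided kcat and KM.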

glucosamine-6-phosphate [2] = variants of: B1; assay: self-cleavage kobs at 2500 uM GlcN6P; higher = faster cleavage; RNA array
How it was run: as §1

glucosamine-6-phosphate [3] = variants of: B1; assay: self-cleavage kobs at 10000 uM GlcN6P; higher = faster cleavage; RNA array
How it was run: as §1

Variant	self-cleavage kobs at 640 uM GlcN6P (glucosamine-6-phosphate [1])	self-cleavage kobs at 2500 uM GlcN6P (glucosamine-6-phosphate [2])	self-cleavage kobs at 10000 uM GlcN6P (glucosamine-6-phosphate [3])
AUAAACGCGCCAGAACUACAGAAAUGUAGUUGACGAGGAGGUGGUUUAUCGAAUUUUCGGCGGAUGCCUGCAAA [A6C A42U C70G]	< 1e-05 s⁻¹	< 1e-05 s⁻¹	
AUAAAAGCGCCAGAACUACAGAAAUGUAGUUGUCGAGGAGGAGGUUUCUCGAAUUUUCGGCGAAUGCCUCCAAA [A33U A48C G63A]	< 1e-05 s⁻¹	< 1e-05 s⁻¹	
AUAAAAGCGCCAGAACUACAGAAAUGUAGUUGAUGAGGAGGAGGUUUAUCGGAGUUUCGGCGGAUGCCUCCAAA [C34U A52G U54G]	< 1e-05 s⁻¹	< 1e-05 s⁻¹	
AUAAAAGCGCCAGAACUACAGAAAUGUAGUUGACCAGGAGGAGGUUUAUCGAAGUUUCGGCGGAUGCCUCCAAA [G35C U54G]	< 1e-05 s⁻¹	< 1e-05 s⁻¹	
AUAAAAGCGCCAGAACUACAGAAAUGUAGUUGACGAGGAGGAGGUUUAUCGAAUUUACGACGGAUGGCUCCAAA [U57A G60A C67G]	6.42e-05 ± 2.2e-05 s⁻¹	0.000109 ± 3.2e-05 s⁻¹	
AUAAAAGCGCCAGAACUACAGAAAUGUAGUUGACGAGGAGGAGGUUUAUCGAUUUUUGGGCGGAUGCUUCCAAA [A53U C58G C68U]	9.02e-05 ± 3.1e-05 s⁻¹		
AUAAAAGCGCCAGAACUACAGAAAUGUAGUUGACGAGGGGGAGGUUUAUCGACUUUUCGGCGGAUGUCUCCAAA [A39G A53C C67U]	0.00111 ± 0.00036 s⁻¹	0.000701 ± 0.00027 s⁻¹	
AUAAAAGCGCCAGACCUACAGAAAUGUAGUUGACGAGGAGGAGGUUUUUCGAAUUUUCGGCGGAUGCUUCCAAA [A15C A48U C68U]	< 1e-05 s⁻¹		
AUAAAAGCGCUCGAACUACAGAAAUGUAGUUGACGAGGAGGAGGUUUAUCGAAUUUUCGGCGGAUGCCUGCAAA [C11U A12C C70G]	0.000165 ± 6.8e-05 s⁻¹		
AUAAAAGCGCCAGAACUACAGAAAUGUAGUGGACGAGGAGGAGGUUUAUCUAAUUUUCGGCGGAUGCCUCCAAA [U31G G51U]	< 1e-05 s⁻¹		
AUAAAAGCGCCAGAACUACAGAAAUGUAGUUGAUGAGGAGGAUGUUUAUCGAAUUUUCCGCGGAUGCCUCCAAA [C34U G43U G59C]	< 1e-05 s⁻¹	< 1e-05 s⁻¹	
AUAAAAGCGCCAGAACUACAGAAAUGUAGUUGACGAGGAGGUGGUUUAUCGAAUUUGCGGCGGAUGCCUCCAAA [A42U U57G]	< 1e-05 s⁻¹	< 1e-05 s⁻¹	
AUAAAAUAGUCAGAACUACAGAAAUGUAGUUGACGAGGAGGAGGUCUAUCGUAUUUUCGGCGGAUGCCUCCAAA [G7U C8A C10U U46C A52U]	< 1e-05 s⁻¹		
AUAAAAGUGCAAGAACUACAGAAAUGUAGUUGACGAGGAGGAGGUUUAUCGAAUUUUCGGCGGAUGCCUCCAAA [C8U C11A]	< 1e-05 s⁻¹		< 1e-05 s⁻¹
AUAAAAGCGCCAGAACUACAGAAAUGUAGUUGACGAGGAGGAGGUUUAUCGAAGCGUCCGCGGAUGCCGCCAAA [U54G U55C U56G G59C U69G]	0.000119 ± 4.3e-05 s⁻¹	6.83e-05 ± 2.7e-05 s⁻¹	
AUAAAAGCGCCAGUACUACAGAAAUGUAGUUGACGAGGAGGCGGUUUAUCGAAUUUUCGGCGGCUGCCUCCAAA [A14U A42C A64C]	< 1e-05 s⁻¹	< 1e-05 s⁻¹	< 1e-05 s⁻¹
AUAAAAGCGCCCGAACUACAGAAAUGUAGCUGACGAGGAGGAGGUUUAUCGAAUUUGCGGCGGACGCCUCCAAA [A12C U30C U57G U65C]	< 1e-05 s⁻¹		
AUAAAAGGGCCAGAACUACAGAAAUGUAGUUGACGAGUAGAAGGUGUAUCGAAUUUUCAGCGGAUGCCUCCAAA [C8G G38U G41A U46G G59A]	< 1e-05 s⁻¹	< 1e-05 s⁻¹	
AUAAAAGCGCCAGAACUACAGAAAUGUAGUUGAGCAGGAGGAGGUUUAUCGAAUUUUCGCCGGAUGCGUCCAAA [C34G G35C G60C C68G]	6.81e-05 ± 3.1e-05 s⁻¹		
AUAAAAGCUCCAGAACUACAGAAAUGUAGUUGAUGAGGAGGAGGUUUAUCGAAUCUUCGCCGAAUGCCUCCAAA [G9U C34U U55C G60C G63A]	< 1e-05 s⁻¹		
AUAAAAGCGCCAGAACUACAGAAAUGUAUUUGUCGAGGAGGAGGUUUAUCGAAUUAUCGGCGGGUGCCUCCAAA [G29U A33U U56A A64G]	< 1e-05 s⁻¹		
AUAAAAGCGCCCGAACUACAGAAAUGUAGUUGACGAGGAGGAGGUUUCUCGAAUUUUCGCCCGAUGCAUCCAAA [A12C A48C G60C G62C C68A]	< 1e-05 s⁻¹		
AUAAAAGCGUCAGAUCUACAGAAAUGUAGUUGACAAGGAGGAGGUUUAUCGAAUUUUCGGGGGAUGCCUCCAAA [C10U A15U G35A C61G]	< 1e-05 s⁻¹	< 1e-05 s⁻¹	
AUAAAAGCGCCAGAACUACAGAAAUGUAGUUGACGAGGAGGAGGUAUAUGGAAUUUUGGGCGGAUGCCUCCAAA [U46A C50G C58G]	< 1e-05 s⁻¹		
